Experimental data taken from article PMC4211652 (Biochemistry, 2014).
Where a chain is given by its changes, count along the chain named. Names and notes keep the numbering of the source. No end group written: not given here.

B1: Ca2+-bound S100B (bovine) covalently modified at Cys84 by SC124 (natural protein)
chain: MSELEKAVVALIDVFHQYSGREGDKHKLKKSELKELINNELSHFLEEIKEQEVVDKVMETLDSDGDGECDFQEFMAFVAMITTACHEFFEHE
modifications: Cys84 covalently bound to the adduct of SC124 (disulfiram)
B2: Ca2+-bound S100B (bovine) covalently modified at Cys84 by SC1475 (natural protein)
chain: B1 chain
modifications: Cys84 covalently bound to SC1475 (3,4-dimethoxydalbergione)
B3: Ca2+-bound S100B (bovine) covalently modified at Cys84 by SC1982 (natural protein)
chain: B1 chain
modifications: Cys84 covalently bound to SC1982 (Rubescensin A) by Michael addition
B4: Ca2+-bound S100B (bovine) covalently modified at Cys84 by SBi4172 (natural protein)
chain: B1 chain
modifications: Cys84 covalently bound to SBi4172 (chelerythrine); the compound could be modelled in chain B only
B5: Ca2+-bound S100B (bovine) covalently modified at Cys84 by SBi4434 (natural protein)
chain: B1 chain
modifications: Cys84 covalently bound to SBi4434 (2,3-bis[(2-hydroxyethyl)thio]-1,4-naphthoquinone), the thiol replacing one thioglycol moiety
B6: TAMRA-labeled peptide TRTK12 (peptide)
peptide: TRTKIDWNKILS
modifications: also: TAMRA label, position not given here

Target: the molecule itself
Test: crystal structure

| Binder | binding result |
| --- | --- |
| B1 | binds |
| B2 | binds |
| B3 | binds |
| B4 | binds |
| B5 | binds |

What follows are binders tested against T1, S100B (rat), Ca2+-loaded (rat, UniProt P04631 1-92) (assay: fluorescence polarisation).
T1 sequence: B1 chain with V8M, S63E, A79S, I81V

| Binder | binding result |
| --- | --- |
| B6 | binds |
